# Reference: PMC9161685
# Molecular target: SARS-CoV-2 main protease (M^pro) triple mutant (Cys85Ser|Cys156Ser|Cys300Ser), (His)6-tagged (SARS-CoV-2)
# Assay: SEC-MALS
substance,measurement,value
"SARS-CoV-2 main protease (M^pro) triple mutant (Cys85Ser|Cys156Ser|Cys300Ser), (His)6-tagged (enzyme)",stoichiometry N,2
